Measurements as given in patent publication US9701713B2, “Compositions and methods for introduction of macromolecules into cells” (The Regents of the University of Colorado, a body corporate, priority 2011, dated 2017).

B1: αB crystallin: recombinant human αB-crystallin (HSPB5) without transduction peptide, used as comparator (protein)
chain: MDIAIHHPWIRRPFFPFHSPSRLFDQFFGEHLLESDLFPTSTSLSPFYLRPPSFLRAPSWFDTGLSEMRLEKDRFSVNLDVKHFSPEELKVKVLGDVIEVHGKHEERQDEHGFISREFHRKYRIPADVDPLTITSSLSSDGVLTVNGPRKQVSGPERTIPITREEKPAVTAAPKK
B2: TAT-αB crystallin: αB crystallin fused to the TAT cell-penetrating peptide (GRKKRRQRRRPQ) of human immunodeficiency virus (protein)
chain: GRKKRRQRRRPQDIAIHHPWIRRPFFPFHSPSRLFDQFFGEHLLESDLFPTSTSLSPFYLRPPSFLRAPSWFDTGLSEMRLEKDRFSVNLDVKHFSPEELKVKVLGDVIEVHGKHEERQDEHGFISREFHRKYRIPADVDPLTITSSLSSDGVLTVNGPRKQVSGPERTIPITREEKPAVTAAPKK

Columns and labels:
[1] = target: T1, P23H rhodopsin (Homo sapiens, UniProt P08100, P23H); experiment: Cell model of aggregation-prone P23H rhodopsin; assay type: cell-based; conditions: aggregation-prone mutant P23H rhodopsin
T1 construct: expressed in transfected cells
From the text: As shown, α crystallin prevents aggregation of the aggregation-prone mutant of rhodpsin, P23H rhodopsin.
This mutation is the cause of the major form of retinitis pigmentosa in humans.

[2] = test system: human lens epithelial cells (HLE B3); experiment: Uptake of Alexa Fluor 488 labeled crystallins into human lens epithelial cells; assay type: cell-based; conditions: Alexa Fluor 488 label, equal amounts of protein
Description: Since in vitro properties of alpha crystallin were unaffected by the addition of the NTD peptide, the ability of the NTD tag to enhance uptake of client proteins into living cells was investigated. To monitor cell uptake, wild type and NTD tagged crystallins were labeled with Alexa Fluor 488, a small reporter molecule. Equal amounts of protein were added to separate tissue culture plates containing human lens epithelial cells (HLE B3) and analyzed for their uptake into cells. At various times after addition of the protein to the cell media, cells were fixed and analyzed by fluorescent microscopy for cellular uptake of the labeled proteins. […] (See FIG. 1 and FIG. 6).
Further, αA- and αB-crystallins with and without the NTD tag were fluorescently-labeled using the fluorescent reporter molecule Alexa Fluor 488, and were incubated with human lens epithelial cells (HLE B3) and human embryonic kidney cells (HEK293). Time-dependent uptake was measured by fluorescent microscopy. At various times after addition of the protein to the cell media, cells were fixed and analyzed by fluorescent microscopy for cellular uptake of the labeled proteins.

[3] = test system: lysozyme; experiment: Chaperone-like activity: suppression of chemically-induced lysozyme aggregation; assay type: biochemical; conditions: lysozyme with dithiothreitol at 37° C.
From the text: The “Relative Absorbance (360 nm)” of lysozyme increases over time under assay conditions. The absorbance increase is an index of protein aggregation. A reduction in the slope of absorbance increase corresponds to inhibition of lysozyme aggregation.
Recombinant human αA- and αB-crystallins were modified by addition of putative transduction sequences at their N- or C-termini. These proteins were expressed in E. coli and isolated to apparent homogeneity using previously published methods (Cobb et al. 2000). Purified proteins were analyzed by size exclusion chromatography to determine size heterogeneity. CLA was assessed by measuring the ability of candidate proteins to suppress chemically-induced aggregation of substrate protein lysozyme in the presence of dithiothreitol at 37° C.

[4] = test system: human lens cells; experiment: Cell penetration and retention of AlexaFluor labeled crystallin in human lens cells over 3 days; assay type: cell-based; conditions: 60 minutes exposure
Description: αB crystallin, with or without fusion to the NTD peptide, was labeled with the small molecular weight fluorescent molecule AlexaFluor. It was then combined with tissue culture nutrient media and applied to a culture plate containing human lens cells. After 60 minutes, the culture media were removed, and replaced with culture media without crystallins. Entry and distribution of crystallins was measured over 3 days by observing fluorescence (green). Cell nuclei were stained with Hoechst dye (blue).

| Molecule | fluorescence of P23H rhodopsin (prevention of aggregation) [1] | intracellular fluorescence (cellular uptake) [2] | chaperone-like activity (suppression of lysozyme aggregation, absorbance 360 nm) [3] | intracellular crystallin fluorescence ([4]; after 48 hours) | intracellular crystallin fluorescence ([4]; after 72 hours) |
| --- | --- | --- | --- | --- | --- |
| alpha crystallin: alpha crystallin with chaperone-like activity applied to cells; b52 and b54 name it αA crystallin | prevented the loss of fluorescence | – | – | – | – |
| B1 | – | comparatively little intracellular fluorescence | effectively suppress lysozyme aggregation | substantially lost | virtually undetectable |
| B2 | – | – | does not suppress lysozyme aggregation | – | – |
